Where a chain is given by its changes, count along the chain named. Names may count otherwise.

The series concerns the molecule itself. In words: other fluorescence titration; aliquots of protein added to poly(εA), enhancement of ethenoadenylate fluorescence; 0.45 M NaCl, 0.02 M HEPES pH 7.68, 1x10^-4 M EDTA/Na+, 20°C; McGhee-von Hippel cooperative model, n = 8; ω is the cooperativity between adjacent proteins bound on the polynucleotide.

B1: Bacteriophage T4 gene 32 protein, full-length protein (1-301) (natural protein, UniProt P03695 1-301, looked up)
chain: MFKRKSTAELAAQMAKLNGNKGFSSEDKGEWKLKLDNAGNGQAVIRFLPSKNDEQAPFAILVNHGFKKNGKWYIETCSSTHGDYDSCPVCQYISKNDLYNTDNKEYSLVKRKTSYWANILVVKDPAAPENEGKVFKYRFGKKIWDKINAMIAVDVEMGETPVDVTCPWEGANFVLKVKQVSGFSNYDESKFLNQSAIPNIDDESFQKELFEQMVDLSEMTSKDKFKSFEELNTKFGQVMGTAVMGGAAATAAKKADKVADDLDAFNVDDFNTKTEDDFMSSSSGSSSSADDTDLDDLLNDL
notes: also called gp32; wild-type gp32; source: expression plasmid pYS6, induced, overexpressed and purified as previously described
As to B1, the “cooperativity parameter ω (on poly(εA))” value came to 2000.

B2: gp32 variant D215A, E218A, D223A (natural protein, bacteriophage T4, UniProt P03695 1-301, looked up)
chain: B1 chain with D215A, E218A, D223A
notes: gene 32 protein of bacteriophage T4 with three negative charges removed within and adjacent to the B helix (216-220); source: pYS6 variant, induced, overexpressed and purified as previously described
Take B2: the “cooperativity parameter ω (on poly(εA))” value was 120.

B3: gp32 variant E229A, E230A (natural protein, bacteriophage T4, UniProt P03695 1-301, looked up)
chain: B1 chain with E229A, E230A
notes: gene 32 protein of bacteriophage T4 with two negative charges removed within the C helix (228-237); source: pYS6 variant, induced, overexpressed and purified as previously described
Turning to B3, the “cooperativity parameter ω (on poly(εA))” value came out at 1000.

These data come from article doi:10.1101/2025.09.02.673855, “Bacteriophage T4 gene 32 protein: Insights into its Interaction with ssDNA, binding cooperativity, and conformational change” (bioRxiv, 2025).
